B1: Tryptophan synthase alpha chain, P0A877 (parent)
chain: MERYESLFAQLKERKEGAFVPFVTLGDPGIEQSLKIIDTLIEAGADALELGIPFSDPLADGPTIQNATLRAFAAGVTPAQCFEMLALIRQKHPTIPIGLLMYANLVFNKGIDEFYAQCEKVGVDSVLVADVPVEESAPFRQAALRHNVAPIFICPPNADDDLLRQIASYGRGYTYLLSRAGVTGAENRAALPLNHLVAKLKEYNAAPPLQGFGISAPDQVKAAIDAGAAGAISGSAIVKIIEQHINEPEKMLAALKVFVQPMKAATRS

Variants of: B1
Settings: Escherichia coli (strain K12), 25 °C, GdnHCl, CD, Potassium phosphate 20 mM, reversible: yes, structure 1WQ5, whole UniProt chain shown

Row | Variant | ddG of mutation (higher = less stable) (pH 7) | unfolding free energy (pH 7) | ddG of mutation (higher = less stable) (pH 9) | unfolding free energy (pH 9)
1 | E49F | 0.86 kcal/mol | 17.3 kcal/mol |  | 
2 | E49P | 0 kcal/mol | 18.2 kcal/mol | -0.8 kcal/mol | 18.8 kcal/mol
3 | E49W | 0.97 kcal/mol | 17.2 kcal/mol | 1.1 kcal/mol | 16.9 kcal/mol
4 | E49I | -0.46 kcal/mol | 18.6 kcal/mol | -1.24 kcal/mol | 19.2 kcal/mol
5 | E49K | -0.2 kcal/mol | 18 kcal/mol | -0.39 kcal/mol | 18.4 kcal/mol
6 | E49T | 0.62 kcal/mol | 17.5 kcal/mol | 0.26 kcal/mol | 17.7 kcal/mol
7 | E49Y | 0.17 kcal/mol | 18 kcal/mol | -0.26 kcal/mol | 18.2 kcal/mol
8 | E49M | 0.05 kcal/mol | 18.1 kcal/mol | -0.52 kcal/mol | 18.5 kcal/mol
9 | E49A | 0.08 kcal/mol | 18.1 kcal/mol | -0.59 kcal/mol | 18.6 kcal/mol
10 | E49L | -0.44 kcal/mol | 18.6 kcal/mol | -1.04 kcal/mol | 19 kcal/mol
11 | E49V | -0.14 kcal/mol | 18.3 kcal/mol |  | 
12 | E49D | 0.8 kcal/mol | 17.4 kcal/mol | 0.03 kcal/mol | 17.9 kcal/mol
13 | E49C | -0.01 kcal/mol | 18.2 kcal/mol | 0.13 kcal/mol | 17.8 kcal/mol
14 | E49G | -0.08 kcal/mol | 18.2 kcal/mol | -0.6 kcal/mol | 18.6 kcal/mol
15 | E49Q | 0.23 kcal/mol | 17.9 kcal/mol |  | 
16 | E49N |  |  | -0.27 kcal/mol | 18.2 kcal/mol
17 | E49S | 0.59 kcal/mol | 17.6 kcal/mol | -0.09 kcal/mol | 18.1 kcal/mol
18 | E49H | -0.33 kcal/mol | 18.5 kcal/mol | -0.67 kcal/mol | 18.6 kcal/mol
